We go through 3 molecules from patent publication US20250011413A1 (MCMASTER UNIVERSITY, published 2025).

Positions count from the first letter of the chain named. Numbers in names are those of the source.

The target in assay [1] is T1, PF4/heparin complex (human PF4 complexed with heparin) (human, UniProt P02776 32-101).
T1 construct: Multimeric complex of PF4 with heparin (not a protein); In the EIAs: PF4 captured on biotinylated heparin on streptavidin plates; In the SRA: platelets with 0.2 U/mL heparin; also called PF4 and heparin complexes
T1 sequence: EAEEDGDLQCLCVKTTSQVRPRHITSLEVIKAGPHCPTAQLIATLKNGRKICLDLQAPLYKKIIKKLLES
In words: BLI (Octet), biotinylated PF4/heparin on streptavidin sensors, scFv at 1 µg/mL, 1:1 model, mean ± s.d. The method, then: BLI experiments were performed using wildtype scFv, mutant B, mutant C, mutant D, mutant E, and mutant F at 1 μg/mL. Binding was measured against immobilized biotinylated PF4/heparin complexes on streptavidin biosensors. b) Table showing kinetic data of wildtype and mutant scFv, including binding responses and association and dissociation rates. All data was analyzed based on a 1:1 homogenous ligand binding model using Octet®) User Software version 3.1.
(§1) The Octet-QK Red 96 (FortéBio, Menlo Park, CA) instrumentation was used to conduct all BLI experiments. A 96-well microtiter plate (black, flat-bottom) was used to hold 200 μL per well of either sample or buffer. Pre-coated streptavidin biosensor tips (FortéBio) were hydrated in phosphate buffered saline (PBS) containing 1% bovine serum albumin (BSA, Sigma-Aldrich) before performing all kinetic assays. Each step was performed at an operating temperature of 23° C. with agitation at 1000 rpm. Streptavidin tips were first equilibrated in PBS+1% BSA to establish a baseline. […] The PF4-coated tips were then dipped into PBS+1% BSA for 13 minutes to re-establish a baseline. Tips were then incubated in an analyte solution containing half-fold dilutions of wildtype scFv (4.0, 2.0, 1.0, 0.5, 0.25 μg/mL in PBS+1% BSA) for 10 minutes to measure association. For mutant scFv association, tips were incubated in an analyte solution containing 200 μL of each mutant and wildtype scFv at a final concentration of 1 μg/mL in PBS+1% BSA. Antibody dissociation steps were performed by dipping sensors in wells containing PBS+1% BSA for 56 minutes. The following negative controls included in these kinetic experiments were also measured: 200 μL of buffer to replace both the antigen and scFv and 200 μL buffer replacing scFv only. Each experiment was performed with PF4 or with PF4/heparin as the immobilized antigen.
BLI experiments were performed to evaluate binding responses and affinities of wildtype and mutant scFv. Biotinylated PF4 alone or complexed with heparin was immobilized on streptavidin biosensors and used to capture wildtype scFv.

Assay [2] addresses T2, Human PF4 (CXCL4), biotinylated, without heparin (human, UniProt P02776 32-101, biotinylated with EZ-link-Sulfo-NHS-LC-Biotin (sites not given)).
T2 construct: Immobilised on streptavidin biosensors for BLI; also called PF4 alone; platelet factor 4
T2 sequence: T1 sequence
In words: BLI (Octet), biotinylated PF4 without heparin on streptavidin sensors, scFv 1 µg/mL. As for the experimental part: as §1
(§2) BLI experiments were performed to evaluate binding responses and affinities of wildtype and mutant scFv. Biotinylated PF4 alone or complexed with heparin was immobilized on streptavidin biosensors and used to capture wildtype scFv. Half-fold serial dilutions of wildtype scFv ranging from 0.25 μg/mL to 4 μg/mL were used to determine the optimal concentrations for future experiments PF4 (PF4 FIG. 3; PF4/heparin FIG. 4).

Assay [3] deals with T1, PF4/heparin complex (human PF4 …). Briefly: BLI (Octet), biotinylated PF4/heparin on streptavidin sensors, scFv 1 µg/mL, 1:1 model. The method, then:
as §1, §2

Assay [4] has the same target. Briefly: competition EIA, scFv 50 µg/mL; competitor HIT-negative sera antibodies, n=10. As for the experimental part:
Inhibitory PF4/heparin IgG-specific Streptavidin Enzyme Immunoassay (EIA). The binding activity of wildtype and mutant scFv antibodies to PF4/heparin complexes was measured using an inhibitory PF4/heparin IgG-specific EIA with a streptavidin-biotin capture system. Before performing this protocol, 96-well NUNC Maxisorp plates (ThermoFisher) were coated with 10 μg/mL streptavidin for 24 h. Plates were then blocked with 3% bovine serum albumin (BSA) in phosphate buffered saline (PBS) for 2 h at room temperature. Plates were then coated with 1 U/mL biotinylated-heparin for 1 h followed by 30 μg/mL PF4 for 1 h. Increasing concentrations of wildtype or mutant scFv were added and incubated for 1 hr at room temperature. Without removing wildtype or scFv, HIT patient sera in a 1:50 dilution or full-length KKO (2 μg/mL) was then incubated for 1 h at room temperature. After washing, alkaline phosphatase-conjugated anti-human or anti-mouse IgG (Jackson Immuno Research Laboratories, Inc., West Grove, PA) was added at a 1:4000 dilution and incubated for 1 h temperature. For detection, 1 mg/mL p-nitrophenylphosphate (PNPP, Sigma-Aldrich) substrate dissolved in 1 mol/L diethanolamine (DEA) buffer (pH 9.6) was added. The optical density (OD) was measured at 2 min intervals for 30 min at 405 nm (OD₄₀₅ₙₘ) using a BioTek 800 TS plate reader (BioTek Instruments Inc., Winooski, VT) to determine if anti-PF4/heparin antibody binding was inhibited. Results were reported as a decrease in OD (absorbance at 405 nm) from baseline levels.
Sera (n=10) from confirmed HIT-negative patients (EIA-positive/SRA-negative) containing anti-PF4/heparin antibodies were then used in the same EIA with scFv constructs to determine if antibody binding was decreased in this cohort (Table 5).

Assay [5] has the same target. In words: competition EIA, scFv 50 µg/mL; competitor HIT-positive sera antibodies, n=10.
For assay [6] the target is unchanged. Briefly: cell-based or functional assay.

B1: Mutant B scFv, scFv(R18K, N152K, D180N) (scFv)
scFv: DIQMIQSQKFMSTSVGDKVTVTCKASQNVGTNVAWYQQKPGQSPNALIYSASYRYSGVPDRFTGSGSGTDFTLTITNVQSEDLADYFCQQYNSYPLTFGTGTKLDLKGGGGSGGGGSGGGGSVQLQQSGAELVKPGASVKLSCKASGYTFTKYFIYWVKQRPGQGLEWIGEINPRNGDTNFNEKFESRATLTVDKSSSTAYMQLSSLTSEDSAIYYCTRSPYGNNYGFTYWGQGTLVTVSA
notes: VL-linker-VH; histidine-tagged, from E. coli BL21; also called Mut B; not shown: histidine tag from the pADL-22c vector
In assay [1], B1 registered a koff of 3.91e-05 s⁻¹ and a kon of 27600 M⁻¹ s⁻¹. In assay [2], the “average binding response (wavelength shift)” value stood at 0.267 nm and the “fold increase of binding response against wildtype scFv” value is 7 fold. In assay [3], the dissociation constant Kd amounted to 1.36 nM and the “fold change of KD against wildtype scFv” value was found to be 100 fold. Further, the “mean OD405nm of bound serum IgG (+ scFv)” value in assay [4] worked out at 1.1 OD405nm. The “mean % inhibition of serum antibody binding” value (from here on “mean % inhibition”) in assay [5] was 77.8%. Besides, in assay [6], the “% inhibition of 14C-serotonin release (SRA), HIT-Positive Patient #1 serum, scFv 50 µg/mL” value came out at 71.1%; the “% inhibition of 14C-serotonin release (SRA), HIT-Positive Patient #1 serum, scFv 75 µg/mL” value stood at 97.8%; the “% inhibition of 14C-serotonin release (SRA), HIT-Positive Patient #2 serum, scFv 50 µg/mL” value amounted to 71.8%; the “% inhibition of 14C-serotonin release (SRA), HIT-Positive Patient #2 serum, scFv 75 µg/mL” value turned out to be 19.2%. In assay [6], the “% inhibition of 14C-serotonin release (SRA), HIT-Positive Patient #3 serum, scFv 50 µg/mL” value was 6%; the “% inhibition of 14C-serotonin release (SRA), HIT-Positive Patient #3 serum, scFv 75 µg/mL” value was 14.5%; the “% inhibition of 14C-serotonin release (SRA), HIT-Positive Patient #4 serum, scFv 50 µg/mL” value stood at 7.8%; the “% inhibition of 14C-serotonin release (SRA), HIT-Positive Patient #4 serum, scFv 75 µg/mL” value is 58.9%. Moreover, in assay [6], the “% inhibition of 14C-serotonin release (SRA), HIT-Positive Patient #5 serum, scFv 50 µg/mL” value came to 90.3% and the “% inhibition of 14C-serotonin release (SRA), HIT-Positive Patient #5 serum, scFv 75 µg/mL” value is 80.6%.

B2: Mutant E scFv, scFv(Y156H, D180G, Q233P) (scFv)
scFv: B1 scFv with K18R, K152N, Y156H, R175K, N180G, Q233P
notes: VL-linker-VH; histidine-tagged, from E. coli BL21; also called Mut E; not shown: histidine tag from the pADL-22c vector
In assay [1], B2 registered a koff of 2.78e-05 s⁻¹ and an association rate constant (kon) of 79200 M⁻¹ s⁻¹. Besides, in assay [2], the “average binding response (wavelength shift)” value was 0.0986 nm and the “fold higher binding response than wildtype scFv” value was 2 fold. Besides, in assay [3], the Kd is 0.275 nM and the “fold stronger affinity than wildtype scFv” value was found to be 100 fold. For the same molecule, the “mean OD405nm of bound serum IgG (+ scFv)” value in assay [4] is 1.08 OD405nm. Moreover, in assay [5], the “mean % inhibition” value is 76.5%. Further, in assay [6], the “% inhibition of 14C-serotonin release (SRA), HIT-Positive Patient #1 serum, scFv 50 µg/mL” value came to 14.4%; the “% inhibition of 14C-serotonin release (SRA), HIT-Positive Patient #1 serum, scFv 75 µg/mL” value came out at 25.6%; the “% inhibition of 14C-serotonin release (SRA), HIT-Positive Patient #2 serum, scFv 50 µg/mL” value was 9%; the “% inhibition of 14C-serotonin release (SRA), HIT-Positive Patient #2 serum, scFv 75 µg/mL” value was 10.3%. Moreover, in assay [6], the “% inhibition of 14C-serotonin release (SRA), HIT-Positive Patient #3 serum, scFv 50 µg/mL” value was found to be 14.5%; the “% inhibition of 14C-serotonin release (SRA), HIT-Positive Patient #3 serum, scFv 75 µg/mL” value was 9.6%; the “% inhibition of 14C-serotonin release (SRA), HIT-Positive Patient #4 serum, scFv 50 µg/mL” value amounted to 6.7%; the “% inhibition of 14C-serotonin release (SRA), HIT-Positive Patient #4 serum, scFv 75 µg/mL” value was found to be 4.4%. In assay [6], the “% inhibition of 14C-serotonin release (SRA), HIT-Positive Patient #5 serum, scFv 50 µg/mL” value is 47.2% and the “% inhibition of 14C-serotonin release (SRA), HIT-Positive Patient #5 serum, scFv 75 µg/mL” value was 59.7%.

B3: Mutant D scFv, scFv(Y156H) (scFv)
scFv: B1 scFv with K18R, K152N, Y156H, N180D
notes: VL-linker-VH; histidine-tagged, from E. coli BL21; also called Mut D; not shown: histidine tag from the pADL-22c vector
As to B3, in assay [1], the off-rate constant (koff) was found to be 3.47e-05 s⁻¹ and the kon came out at 12900 M⁻¹ s⁻¹. Moreover, in assay [2], the “average binding response (wavelength shift)” value was determined as 0.145 nm and the “fold higher binding response than wildtype scFv” value is not below 3 fold. In addition, in assay [3], binding was put at a Kd of 3.77 nM and the “fold stronger affinity than wildtype scFv” value was found to be 100 fold. Also, the “mean OD405nm of bound serum IgG (+ scFv)” value in assay [4] was 1 OD405nm. Moreover, in assay [5], the “mean % inhibition” value came out at 78.3%. In assay [6], the “% inhibition of 14C-serotonin release (SRA), HIT-Positive Patient #1 serum, scFv 50 µg/mL” value was 42.2%; the “% inhibition of 14C-serotonin release (SRA), HIT-Positive Patient #1 serum, scFv 75 µg/mL” value turned out to be 94.4%; the “% inhibition of 14C-serotonin release (SRA), HIT-Positive Patient #2 serum, scFv 50 µg/mL” value was determined as 12.8%; the “% inhibition of 14C-serotonin release (SRA), HIT-Positive Patient #2 serum, scFv 75 µg/mL” value worked out at 16.7%. Moreover, in assay [6], the “% inhibition of 14C-serotonin release (SRA), HIT-Positive Patient #3 serum, scFv 50 µg/mL” value is 10.8%; the “% inhibition of 14C-serotonin release (SRA), HIT-Positive Patient #3 serum, scFv 75 µg/mL” value amounted to 36.1%; the “% inhibition of 14C-serotonin release (SRA), HIT-Positive Patient #4 serum, scFv 50 µg/mL” value was determined as 20%; the “% inhibition of 14C-serotonin release (SRA), HIT-Positive Patient #4 serum, scFv 75 µg/mL” value was determined as 38.9%. Moreover, in assay [6], the “% inhibition of 14C-serotonin release (SRA), HIT-Positive Patient #5 serum, scFv 50 µg/mL” value was 69.4% and the “% inhibition of 14C-serotonin release (SRA), HIT-Positive Patient #5 serum, scFv 75 µg/mL” value is 87.5%.
